B1: PW5-535 (antibody, V domains shown)
VH: EVRLVESGGGLVQPGGSLRLSCAASGFTFRNYDIHWVRQTTGKGLEWVSAVGTSGDTYYLDSVKGRFTISREDAKKSVYLQMNSLRAGDTAMYYCVRGDASPDNIYYYMDVWGTGTRVIVSS
VL: DIQVTQSPSPLSASVGDRVTITCRASQTIGKYLNWYHQIPGKAPKLLISAASTLHSGVPSRFSGRGSGTDFTLTISSLQPEDFGTYYCQQSYSSPPWTFGQGTKVEIK
B2: PW5-5 (antibody, V domains shown)
VH: QVQLVQSGAEVKKPGASVKVSCKTSGYTFTDHYMYWVRQAPGQGLEWMGVINPDAGSVTYAQKFQGRVTMTSDTSTSTVYMELSSLRSEDTAVYYCARDLFFIPAANSFDYWGQGTLVTVSS
VL: EIVLTQSPATLSLSPGERATLSCRASQSVSSYLAWYQQKPGQAPRLLIYDATNRATGIPARFSGSGSGTDFTLTISSLEPEDFAVYYCQHRSNWPRMFTFGQGTKLEIK
notes: also called PW5-5 IgG; IgG PW5-5
B3: PW5-570 (antibody, V domains shown)
VH: QMQLVQSGPEVRKPGTSVKVSCRASVFSFDTSAVQWVRQARGQPLEWIGWIVFGSSNTDYAQKFRDRVTITGDMSTGTAYMELSSLRSEDTAVYYCAAPHCNRTNCHDGFDIWGQGTVVTVSS
VL: EIVLTQSPGTLSLSPGERATLSCRASQSVRSGYLGWYQQKPGQAPRLLIYGAYNRATGIPDRFRGSGSGTDFTLTISRLEPEDFVVYYCQQYDRSPWTFGQGTKVEIK
notes: also called PW5-570 IgG; PW5-570 immunoglobulin G

Target: SARS-CoV-2 S trimer (stabilized soluble S2P) (SARS-CoV-2, ancestral (WT, Wuhan-Hu-1 …, UniProt P0DTC2, stabilised))
Assay: ELISA
Conditions: both partners purified

Binder	binding result
B1	binds
B2	binds
B3	binds

Source: publication PMC10847457 (Cell Discovery, 2024)
